One assay deals with T1, AP1-AA.
T1 chain: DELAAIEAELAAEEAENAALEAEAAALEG
Nature of the assay: two-hybrid library CCmax.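 Further: natural log of median RNA to DNA barcode read ratio; higher means stronger binding.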

The next assay has as its target T2, AP2-AA.
T2 chain: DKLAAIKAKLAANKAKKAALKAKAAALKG
Nature of the assay: two-hybrid library CCmax.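 Further: natural log of median RNA to DNA barcode read ratio; higher means stronger binding.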

For another assay, the target named is T3, AP3-AA.
T3 chain: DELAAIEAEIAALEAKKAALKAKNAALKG
Description: two-hybrid library CCmax.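 Further: natural log of median RNA to DNA barcode read ratio; higher means stronger binding.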

The next assay deals with T4, AP4-AA.
T4 chain: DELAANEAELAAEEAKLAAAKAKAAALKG
Nature of the assay: two-hybrid library CCmax.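 Further: natural log of median RNA to DNA barcode read ratio; higher means stronger binding.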

The next assay addresses T5, AP5-AA.
T5 chain: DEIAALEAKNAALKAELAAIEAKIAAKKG
Description: two-hybrid library CCmax.

The next assay concerns the target T6, AP6-AA.
T6 chain: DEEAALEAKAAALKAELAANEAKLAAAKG
Description: two-hybrid library CCmax.

The next assay concerns the target T7, AP7-AA.
T7 chain: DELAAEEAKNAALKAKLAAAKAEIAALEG
Nature of the assay: two-hybrid library CCmax.

The target in the next assay is T8, AP8-AA.
T8 chain: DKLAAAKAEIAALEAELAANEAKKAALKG
Description: two-hybrid library CCmax.

The target in another assay is GCN2_T. Nature of the assay: two-hybrid library CCmax.
In the next assay the target is T9, P1-AA.
T9 chain: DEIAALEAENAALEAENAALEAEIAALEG
Nature of the assay: two-hybrid library CCmax.

The target in the next assay is T10, P10-AA.
T10 chain: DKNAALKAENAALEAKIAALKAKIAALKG
Description: two-hybrid library CCmax.

A further assay has as its target T11, P11-AA.
T11 chain: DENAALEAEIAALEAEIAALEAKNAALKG
Nature of the assay: two-hybrid library CCmax.

The next assay has as its target T12, P12-AA.
T12 chain: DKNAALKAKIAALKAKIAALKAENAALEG
Description: two-hybrid library CCmax.

The target of another assay is T13, P2-AA.
T13 chain: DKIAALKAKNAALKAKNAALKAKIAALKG
Description: two-hybrid library CCmax.

The target of another assay is T14, P3-AA.
T14 chain: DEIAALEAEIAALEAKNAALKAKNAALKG
Nature of the assay: two-hybrid library CCmax.

The target in another assay is T15, P4-AA.
T15 chain: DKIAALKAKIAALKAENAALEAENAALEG
Nature of the assay: two-hybrid library CCmax.

For the next assay, the target named is T16, P7-AA.
T16 chain: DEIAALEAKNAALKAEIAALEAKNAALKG
Nature of the assay: two-hybrid library CCmax.

A further assay concerns the target T17, P8-AA.
T17 chain: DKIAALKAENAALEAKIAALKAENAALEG
Nature of the assay: two-hybrid library CCmax.

In the next assay the target is T18, P9-AA.
T18 chain: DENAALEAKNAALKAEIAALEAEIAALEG
Nature of the assay: two-hybrid library CCmax.

Another assay addresses T19, 4H_BCR.
T19 chain: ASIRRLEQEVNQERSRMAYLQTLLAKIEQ
Nature of the assay: two-hybrid library CCmax.

Assay [1] addresses T20, O16.
T20 chain: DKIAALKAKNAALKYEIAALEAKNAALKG
Nature of the assay: two-hybrid library CCNG1.

Assay [2] has as its target T21, O2.
T21 chain: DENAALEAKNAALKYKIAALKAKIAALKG
Nature of the assay: two-hybrid library CCNG1.

Assay [3] has as its target T22, O3.
T22 chain: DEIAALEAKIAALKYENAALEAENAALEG
Nature of the assay: two-hybrid library CCNG1.

The target in assay [4] is T23, O4.
T23 chain: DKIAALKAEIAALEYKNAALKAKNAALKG
Description: two-hybrid library CCNG1.

For assay [5], the target named is T24, O5.
T24 chain: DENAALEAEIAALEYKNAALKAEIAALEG
Nature of the assay: two-hybrid library CCNG1.

For assay [6], the target named is T25, O6.
T25 chain: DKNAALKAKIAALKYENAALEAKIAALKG
Description: two-hybrid library CCNG1.

Assay [7] has as its target T26, O7.
T26 chain: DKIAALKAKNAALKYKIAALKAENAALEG
Nature of the assay: two-hybrid library CCNG1.

The target in assay [8] is T27, O8.
T27 chain: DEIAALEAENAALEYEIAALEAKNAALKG
Description: two-hybrid library CCNG1.

In assay [9] the target is T28, O9.
T28 chain: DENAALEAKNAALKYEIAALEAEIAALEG
Description: two-hybrid library CCNG1.

For assay [10], the target named is T29, O16.
T29 chain: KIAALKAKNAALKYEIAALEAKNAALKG
Description: two-hybrid library CC0. The conditions noted are these: mean of both orientations.

The target in assay [11] is T30, O2.
T30 chain: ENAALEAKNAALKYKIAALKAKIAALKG
Nature of the assay: two-hybrid library CC0. The conditions noted are these: mean of both orientations.

For assay [12], the target named is T31, O3.
T31 chain: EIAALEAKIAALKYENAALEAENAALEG
Description: two-hybrid library CC0. The conditions noted are these: mean of both orientations.

In assay [13] the target is T32, O4.
T32 chain: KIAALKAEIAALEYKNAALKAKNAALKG
Nature of the assay: two-hybrid library CC0. The conditions noted are these: mean of both orientations.

In assay [14] the target is T33, O5.
T33 chain: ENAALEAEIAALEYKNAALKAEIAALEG
Nature of the assay: two-hybrid library CC0. The conditions noted are these: mean of both orientations.

The target in assay [15] is T34, O6.
T34 chain: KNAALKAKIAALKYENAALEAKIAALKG
Description: two-hybrid library CC0. The conditions noted are these: mean of both orientations.

The target in assay [16] is T35, O7.
T35 chain: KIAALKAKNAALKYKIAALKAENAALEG
Nature of the assay: two-hybrid library CC0. The conditions noted are these: mean of both orientations.

For assay [17], the target named is T36, O8.
T36 chain: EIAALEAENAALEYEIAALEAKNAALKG
Description: two-hybrid library CC0. The conditions noted are these: mean of both orientations.

Assay [18] addresses T37, O9.
T37 chain: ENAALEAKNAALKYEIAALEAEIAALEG
Nature of the assay: two-hybrid library CC0. The conditions noted are these: mean of both orientations.

For the next assay, the target named is 4H_GCN4. Description: two-hybrid library CCmax. The conditions noted are these: mean of both orientations.
Chain of 4H_GCN4 (chain, as listed by the source): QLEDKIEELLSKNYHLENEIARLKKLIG
A further assay concerns the target T38, O11-AA.
T38 chain: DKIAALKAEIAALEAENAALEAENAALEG
Nature of the assay: two-hybrid library CCmax. The conditions noted are these: mean of both orientations.

A further assay has as its target T39, O13-AA.
T39 chain: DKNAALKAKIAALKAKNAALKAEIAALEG
Nature of the assay: two-hybrid library CCmax. The conditions noted are these: mean of both orientations.

A further assay concerns the target T40, O14-AA.
T40 chain: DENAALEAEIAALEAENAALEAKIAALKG
Nature of the assay: two-hybrid library CCmax. The conditions noted are these: mean of both orientations.

The next assay concerns the target T41, zCON9_A.
T41 chain: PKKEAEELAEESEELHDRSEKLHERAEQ
Nature of the assay: two-hybrid library CCmax.

In a further assay the target is T42, zCON9_B.
T42 chain: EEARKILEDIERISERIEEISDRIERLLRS
Description: two-hybrid library CCmax. The conditions noted are these: mean of both orientations.

For another assay, the target named is T43, zCON9_D.
T43 chain: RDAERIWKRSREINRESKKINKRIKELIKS
Description: two-hybrid library CCmax. The conditions noted are these: mean of both orientations.

Read-outs that look alike come from different tables or passages of the source.

Our source for the interaction score values is PMC10397247.

As for DELAAIEAELAAEEAENAALEAEAAALEG [AP1-AA], the interaction score in the assay with AP1-AA was -1.8; with AP2-AA (mean of both orientations), -1.59; in the assay with AP3-AA (mean of both orientations), -1.43; with AP4-AA (mean of both orientations), -1.14; with AP5-AA (mean of both orientations) it was -1.52; with AP6-AA (mean of both orientations) it was -2.13. The interaction score with AP7-AA (mean of both orientations) is -1.41; with AP8-AA (mean of both orientations), -1.34; with GCN2_T it was -2.11; with P1-AA (mean of both orientations) it was -1.54; with P10-AA (mean of both orientations), -1.61; in the assay with P11-AA (mean of both orientations) it was -1.38. Besides, the interaction score is -1.66 in the assay with P12-AA (mean of both orientations); 0.117 with P2-AA (mean of both orientations); -1.19 in the assay with P3-AA; -1.4 with P4-AA (mean of both orientations); -1.65 with P7-AA (mean of both orientations); -1.49 in the assay with P8-AA (mean of both orientations). For the same molecule, the interaction score in the assay with P9-AA (mean of both orientations) is -1.77.

KRLKQIEKRLQAKEWEKAQLRKELQALRK [4H_APH4]: the interaction score with 4H_BCR was -1.95; with AP1-AA (mean of both orientations), -1.81; with AP2-AA, -2.2; in the assay with AP3-AA it was -1.44; with AP4-AA (mean of both orientations) it was -1.78; in the assay with AP5-AA it was -1.61. Besides, the interaction score was -2.8 in the assay with AP6-AA; -2.06 with AP7-AA; -1.39 with AP8-AA; -2.2 with P1-AA; -1.38 with P10-AA; -1.36 in the assay with P11-AA. Further, the interaction score is -2.07 with P12-AA; -1.88 with P2-AA; -1.05 with P3-AA; -2.31 with P4-AA; -1.7 with P7-AA; -2.2 in the assay with P8-AA. The same molecule yielded an interaction score in the assay with P9-AA of -1.79.

Regarding KRLKQLRKRKQAKRWEEAQIEKELQAIEK [4H_APH2], the interaction score is -1.77 with 4H_BCR; -1.22 with AP1-AA; -2.23 with AP2-AA; -1.71 with AP3-AA; -1.35 with AP4-AA; -1.71 in the assay with AP5-AA. In addition, the interaction score was -1.16 with AP6-AA; -1.91 with AP7-AA; -1.53 in the assay with AP8-AA; -1.37 with P1-AA; -1.63 in the assay with P10-AA; -1.87 with P11-AA. Besides, the interaction score is -1.31 in the assay with P12-AA; -1.76 with P4-AA; -1.59 with P7-AA; -1.79 with P8-AA; -1.85 in the assay with P9-AA.

As for KRAKQLRKRLQALEWQLAQIRKELQAAEK [4H_APH3], the interaction score was -1.42 with 4H_BCR; -1.7 in the assay with AP1-AA; -1.83 in the assay with AP2-AA; -1.76 in the assay with AP4-AA; -0.968 with AP5-AA; -2.3 in the assay with AP6-AA. Moreover, the interaction score in the assay with AP7-AA is -1.94; with AP8-AA it was -0.758; in the assay with P1-AA it was -1.41; with P10-AA, -0.731; in the assay with P11-AA it was 0.988; with P12-AA, -1.53. The interaction score in the assay with P2-AA is -1.85; with P3-AA, -1.01; with P4-AA, -2.3; with P7-AA, -1.07; with P8-AA, -1.41; with P9-AA, -0.77.

As to DKIAALKAKNAALKYEIAALEAKNAALKG, the interaction score is -2.69 in the assay with O16 [1]; -2.29 in the assay with O2 [2]; -1.85 with O3 [3]; -1.89 in the assay with O4 [4]; -1.91 with O5 [5]; -1.46 with O6 [6]. Further, the interaction score with O7 [7] is -1.81; with O8 [8], -0.596; with O9 [9], -2.26.

For the molecule KIAALKAKNAALKYEIAALEAKNAALKG, the interaction score is -2.76 with O16 [10]; -2.67 with O2 [11]; -2.69 with O3 [12]; -2.71 with O4 [13]; -2.68 with O5 [14]; -1.77 with O6 [15]. The results for the interaction score with O7 [16], with O8 [17] and with O9 [18] were -2.48, 0.382 and -2.65, respectively.

Consider ASIRRLEQEVNQERSRMAYLQTLLAKIEQ [4H_BCR], for which the interaction score with 4H_BCR is -1.84; with 4H_GCN4, -1.7; with AP1-AA (mean of both orientations) it was -1.92; in the assay with AP2-AA (mean of both orientations) it was -2.54; with AP3-AA (mean of both orientations), -1.8; in the assay with AP4-AA (mean of both orientations), -1.51. Besides, the interaction score is -1.5 with AP5-AA (mean of both orientations); -1.75 with AP6-AA (mean of both orientations); -1.69 with AP7-AA (mean of both orientations); -1.28 with AP8-AA (mean of both orientations); -2.01 in the assay with GCN2_T; -1.66 with O11-AA. The interaction score was -1.72 in the assay with O13-AA; -0.776 with O14-AA; -1.71 in the assay with P1-AA (mean of both orientations); -1.67 in the assay with P10-AA (mean of both orientations); -1.68 with P11-AA (mean of both orientations); -1.94 in the assay with P12-AA (mean of both orientations). Further, the interaction score was -2.08 with P2-AA (mean of both orientations); -2.12 with P3-AA (mean of both orientations); -1.94 with P4-AA (mean of both orientations); -1.28 with P7-AA (mean of both orientations); -1.85 with P8-AA (mean of both orientations); -1.88 with P9-AA (mean of both orientations). The interaction score is -2.12 with zCON9_A, -0.916 with zCON9_B and -1.5 in the assay with zCON9_D.
